In patent US20140072613A1, “Compositions and Methods for Treating Cutaneous Scarring” (priority 2012, published 2014):

How the values were obtained:
Test in all cases: biochemical
Format in all cases: biochemical
[1] = target: 266 human kinases (Homo sapiens, UniProt Q02750); details: MEK1(h); 100 μM
Summary of the method: (§1)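 A filter-capture radiometric assay: phosphorylated cationic substrate binds an anionic membrane and is scintillation-counted, with values referenced to full-activity control.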

[2] = target: 266 human kinases (Homo sapiens, UniProt O14757); details: CHK1(h); 100 μM
266 human kinases (Homo sapiens, UniProt O14757), sequence (O14757 whole entry): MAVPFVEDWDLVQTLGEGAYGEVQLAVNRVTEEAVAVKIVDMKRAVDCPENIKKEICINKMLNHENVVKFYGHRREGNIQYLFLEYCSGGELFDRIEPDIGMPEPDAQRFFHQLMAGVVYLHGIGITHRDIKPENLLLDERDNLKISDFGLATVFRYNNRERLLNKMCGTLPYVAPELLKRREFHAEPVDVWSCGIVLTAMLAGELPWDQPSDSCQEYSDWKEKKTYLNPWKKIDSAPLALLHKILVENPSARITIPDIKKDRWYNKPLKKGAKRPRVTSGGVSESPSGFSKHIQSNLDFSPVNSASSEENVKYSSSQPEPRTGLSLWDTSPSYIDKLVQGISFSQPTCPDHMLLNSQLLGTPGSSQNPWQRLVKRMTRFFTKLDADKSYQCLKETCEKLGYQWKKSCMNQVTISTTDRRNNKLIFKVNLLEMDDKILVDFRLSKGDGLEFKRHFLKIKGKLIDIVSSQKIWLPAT
Summary of the method: as §1

[3] = target: 266 human kinases (Homo sapiens, UniProt P07949, V804M); details: Ret(V804M)(h); 100 μM
Summary of the method: as §1

[4] = target: T1, 266 human kinases (Homo sapiens, UniProt Q9UBE8); details: NLK(h); 100 μM
T1 sequence (Q9UBE8 1-527): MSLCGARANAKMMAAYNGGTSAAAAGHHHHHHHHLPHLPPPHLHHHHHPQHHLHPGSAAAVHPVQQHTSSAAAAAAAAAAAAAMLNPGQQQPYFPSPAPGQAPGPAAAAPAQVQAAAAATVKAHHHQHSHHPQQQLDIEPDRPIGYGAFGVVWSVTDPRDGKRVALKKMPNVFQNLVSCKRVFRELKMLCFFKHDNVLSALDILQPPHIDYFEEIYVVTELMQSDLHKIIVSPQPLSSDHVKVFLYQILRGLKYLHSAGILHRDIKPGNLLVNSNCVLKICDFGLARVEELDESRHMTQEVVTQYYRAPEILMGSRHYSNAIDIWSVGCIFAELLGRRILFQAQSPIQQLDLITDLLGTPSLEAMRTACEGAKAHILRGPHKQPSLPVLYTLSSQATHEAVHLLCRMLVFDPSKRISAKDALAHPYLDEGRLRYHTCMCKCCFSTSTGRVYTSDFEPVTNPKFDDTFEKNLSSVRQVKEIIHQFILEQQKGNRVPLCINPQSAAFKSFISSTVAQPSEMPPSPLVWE
Summary of the method: as §1

[5] = target: 266 human kinases (Homo sapiens, UniProt O15264); details: SAPK4(h); 100 μM
266 human kinases (Homo sapiens, UniProt O15264), sequence (O15264 whole entry): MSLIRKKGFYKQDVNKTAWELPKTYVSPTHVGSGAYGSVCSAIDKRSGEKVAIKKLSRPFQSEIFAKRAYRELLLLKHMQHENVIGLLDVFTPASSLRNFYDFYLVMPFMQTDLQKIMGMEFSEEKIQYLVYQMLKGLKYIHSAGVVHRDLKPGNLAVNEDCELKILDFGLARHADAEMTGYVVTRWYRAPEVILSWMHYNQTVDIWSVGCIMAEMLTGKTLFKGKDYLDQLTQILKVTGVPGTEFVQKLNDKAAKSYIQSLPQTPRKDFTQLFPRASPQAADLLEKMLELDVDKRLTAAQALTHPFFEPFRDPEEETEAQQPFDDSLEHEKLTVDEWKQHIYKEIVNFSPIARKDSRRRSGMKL
Summary of the method: as §1

[6] = target: 266 human kinases (Homo sapiens, UniProt O14965); details: Aurora-A(h); 100 μM
266 human kinases (Homo sapiens, UniProt O14965), sequence (O14965 whole entry): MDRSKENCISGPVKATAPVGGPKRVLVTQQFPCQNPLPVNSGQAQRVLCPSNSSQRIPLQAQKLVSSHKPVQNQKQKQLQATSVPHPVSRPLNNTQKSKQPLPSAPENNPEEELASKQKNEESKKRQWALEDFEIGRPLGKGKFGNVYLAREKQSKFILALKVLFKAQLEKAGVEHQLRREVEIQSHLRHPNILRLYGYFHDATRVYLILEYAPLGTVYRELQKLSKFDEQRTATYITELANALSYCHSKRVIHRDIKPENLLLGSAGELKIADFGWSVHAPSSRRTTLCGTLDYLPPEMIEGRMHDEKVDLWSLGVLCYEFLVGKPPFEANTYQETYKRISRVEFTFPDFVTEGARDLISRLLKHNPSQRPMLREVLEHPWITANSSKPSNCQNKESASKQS
Summary of the method: as §1

[7] = target: 266 human kinases (Homo sapiens, UniProt Q8N4C8); details: MINK(h); 100 μM
Summary of the method: as §1

[8] = target: T2, 266 human kinases (Homo sapiens, UniProt Q7L7X3); details: TAO1(h); 100 μM
T2 sequence (Q7L7X3 1-1001): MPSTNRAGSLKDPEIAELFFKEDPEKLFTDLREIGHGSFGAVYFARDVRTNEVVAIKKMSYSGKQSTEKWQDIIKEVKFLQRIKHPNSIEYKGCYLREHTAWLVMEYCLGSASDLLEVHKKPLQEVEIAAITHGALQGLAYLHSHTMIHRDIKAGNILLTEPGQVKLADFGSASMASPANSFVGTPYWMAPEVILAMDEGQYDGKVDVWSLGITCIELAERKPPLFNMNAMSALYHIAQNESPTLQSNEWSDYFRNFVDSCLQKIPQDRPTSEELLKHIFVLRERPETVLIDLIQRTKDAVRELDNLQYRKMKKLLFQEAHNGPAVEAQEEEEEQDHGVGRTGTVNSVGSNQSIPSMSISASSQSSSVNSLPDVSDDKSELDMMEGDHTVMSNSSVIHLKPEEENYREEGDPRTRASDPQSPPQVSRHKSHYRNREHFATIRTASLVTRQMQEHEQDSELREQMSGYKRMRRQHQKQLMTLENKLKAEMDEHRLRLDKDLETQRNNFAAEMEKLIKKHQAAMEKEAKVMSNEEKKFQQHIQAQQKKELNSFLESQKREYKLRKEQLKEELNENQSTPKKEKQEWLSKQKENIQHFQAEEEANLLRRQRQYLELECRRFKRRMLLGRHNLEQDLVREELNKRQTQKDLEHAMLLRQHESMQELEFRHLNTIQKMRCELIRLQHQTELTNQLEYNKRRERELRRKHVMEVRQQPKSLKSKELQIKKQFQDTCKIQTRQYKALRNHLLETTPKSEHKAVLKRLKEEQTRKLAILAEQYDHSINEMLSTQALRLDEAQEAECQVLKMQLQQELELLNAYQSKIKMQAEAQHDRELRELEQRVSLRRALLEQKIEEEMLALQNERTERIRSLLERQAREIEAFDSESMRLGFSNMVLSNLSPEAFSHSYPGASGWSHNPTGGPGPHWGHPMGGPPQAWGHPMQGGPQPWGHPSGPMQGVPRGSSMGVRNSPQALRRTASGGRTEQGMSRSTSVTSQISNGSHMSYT
Summary of the method: as §1

[9] = target: 266 human kinases (Homo sapiens, UniProt Q16539); details: SAPK2a(h); 100 μM
266 human kinases (Homo sapiens, UniProt Q16539), sequence (Q16539 whole entry): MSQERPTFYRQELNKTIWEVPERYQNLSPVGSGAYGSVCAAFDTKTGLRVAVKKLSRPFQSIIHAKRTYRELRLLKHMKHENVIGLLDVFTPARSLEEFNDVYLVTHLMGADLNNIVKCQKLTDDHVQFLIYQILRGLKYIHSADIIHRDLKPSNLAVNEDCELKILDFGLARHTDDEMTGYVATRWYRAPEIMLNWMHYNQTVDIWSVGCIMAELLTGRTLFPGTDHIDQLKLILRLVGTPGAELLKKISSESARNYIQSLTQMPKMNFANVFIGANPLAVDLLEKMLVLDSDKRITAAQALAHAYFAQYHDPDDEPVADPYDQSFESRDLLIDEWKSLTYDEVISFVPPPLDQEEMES
Summary of the method: as §1

[10] = target: T3, 266 human kinases (Homo sapiens, UniProt P51817); details: PrKX(h); 100 μM
T3 sequence (P51817 1-358): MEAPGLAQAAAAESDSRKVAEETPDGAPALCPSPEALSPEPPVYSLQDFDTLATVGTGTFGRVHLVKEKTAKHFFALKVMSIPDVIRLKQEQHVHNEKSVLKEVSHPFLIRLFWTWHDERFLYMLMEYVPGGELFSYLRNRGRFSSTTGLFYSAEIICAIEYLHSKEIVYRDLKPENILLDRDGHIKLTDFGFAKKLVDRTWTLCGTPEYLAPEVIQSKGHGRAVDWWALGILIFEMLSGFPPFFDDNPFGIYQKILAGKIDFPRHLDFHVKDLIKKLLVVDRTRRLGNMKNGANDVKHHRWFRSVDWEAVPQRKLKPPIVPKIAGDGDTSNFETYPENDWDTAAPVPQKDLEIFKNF
Summary of the method: as §1

[11] = target: 266 human kinases (Homo sapiens, UniProt P57059); details: SIK(h); 100 μM
266 human kinases (Homo sapiens, UniProt P57059), sequence (P57059 whole entry): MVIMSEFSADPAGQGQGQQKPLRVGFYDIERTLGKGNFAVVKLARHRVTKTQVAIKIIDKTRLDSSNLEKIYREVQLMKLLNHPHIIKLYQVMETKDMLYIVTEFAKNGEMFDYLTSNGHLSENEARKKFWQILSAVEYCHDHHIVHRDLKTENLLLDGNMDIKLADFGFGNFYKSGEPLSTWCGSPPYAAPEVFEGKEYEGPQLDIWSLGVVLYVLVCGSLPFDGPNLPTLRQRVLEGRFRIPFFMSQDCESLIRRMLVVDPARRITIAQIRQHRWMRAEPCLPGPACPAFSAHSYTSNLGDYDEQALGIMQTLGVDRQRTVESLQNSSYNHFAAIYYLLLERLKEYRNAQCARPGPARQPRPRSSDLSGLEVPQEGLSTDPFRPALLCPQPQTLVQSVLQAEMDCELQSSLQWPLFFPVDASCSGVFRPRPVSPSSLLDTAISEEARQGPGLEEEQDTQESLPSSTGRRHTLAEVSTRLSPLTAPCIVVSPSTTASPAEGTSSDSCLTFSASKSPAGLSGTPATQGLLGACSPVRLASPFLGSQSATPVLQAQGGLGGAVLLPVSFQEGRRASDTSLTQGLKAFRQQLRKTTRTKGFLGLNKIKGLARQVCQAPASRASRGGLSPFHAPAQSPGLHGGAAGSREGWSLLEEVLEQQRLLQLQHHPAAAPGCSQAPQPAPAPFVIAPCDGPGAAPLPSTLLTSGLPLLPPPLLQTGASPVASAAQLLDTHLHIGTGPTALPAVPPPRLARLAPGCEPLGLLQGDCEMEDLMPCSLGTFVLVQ
Summary of the method: as §1

[12] = target: 266 human kinases (Homo sapiens, UniProt Q9H4B4); details: Plk3(h); 100 μM
266 human kinases (Homo sapiens, UniProt Q9H4B4), sequence (Q9H4B4 whole entry): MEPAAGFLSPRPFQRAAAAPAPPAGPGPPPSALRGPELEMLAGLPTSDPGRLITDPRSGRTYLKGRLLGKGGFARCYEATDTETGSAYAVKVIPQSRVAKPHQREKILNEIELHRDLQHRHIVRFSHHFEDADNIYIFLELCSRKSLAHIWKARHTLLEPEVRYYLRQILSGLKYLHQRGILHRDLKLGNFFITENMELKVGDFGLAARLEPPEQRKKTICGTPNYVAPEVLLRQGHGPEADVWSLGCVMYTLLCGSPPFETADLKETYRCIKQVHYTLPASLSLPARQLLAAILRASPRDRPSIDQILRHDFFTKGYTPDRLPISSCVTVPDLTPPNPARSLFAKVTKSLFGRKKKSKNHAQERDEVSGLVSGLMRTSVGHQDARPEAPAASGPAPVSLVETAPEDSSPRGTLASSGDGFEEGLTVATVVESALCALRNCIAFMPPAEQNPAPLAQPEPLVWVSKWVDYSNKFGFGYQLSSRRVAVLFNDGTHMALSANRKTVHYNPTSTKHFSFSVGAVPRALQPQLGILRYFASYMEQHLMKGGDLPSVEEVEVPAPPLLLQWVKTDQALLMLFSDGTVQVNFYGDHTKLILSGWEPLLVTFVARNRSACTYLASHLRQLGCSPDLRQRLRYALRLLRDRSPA
Summary of the method: as §1

[13] = target: 266 human kinases (Homo sapiens, UniProt Q02763, R849W); details: Tie2(R849W)(h); 100 μM
266 human kinases (Homo sapiens, UniProt Q02763, R849W), sequence (Q02763 23-1124 R849W): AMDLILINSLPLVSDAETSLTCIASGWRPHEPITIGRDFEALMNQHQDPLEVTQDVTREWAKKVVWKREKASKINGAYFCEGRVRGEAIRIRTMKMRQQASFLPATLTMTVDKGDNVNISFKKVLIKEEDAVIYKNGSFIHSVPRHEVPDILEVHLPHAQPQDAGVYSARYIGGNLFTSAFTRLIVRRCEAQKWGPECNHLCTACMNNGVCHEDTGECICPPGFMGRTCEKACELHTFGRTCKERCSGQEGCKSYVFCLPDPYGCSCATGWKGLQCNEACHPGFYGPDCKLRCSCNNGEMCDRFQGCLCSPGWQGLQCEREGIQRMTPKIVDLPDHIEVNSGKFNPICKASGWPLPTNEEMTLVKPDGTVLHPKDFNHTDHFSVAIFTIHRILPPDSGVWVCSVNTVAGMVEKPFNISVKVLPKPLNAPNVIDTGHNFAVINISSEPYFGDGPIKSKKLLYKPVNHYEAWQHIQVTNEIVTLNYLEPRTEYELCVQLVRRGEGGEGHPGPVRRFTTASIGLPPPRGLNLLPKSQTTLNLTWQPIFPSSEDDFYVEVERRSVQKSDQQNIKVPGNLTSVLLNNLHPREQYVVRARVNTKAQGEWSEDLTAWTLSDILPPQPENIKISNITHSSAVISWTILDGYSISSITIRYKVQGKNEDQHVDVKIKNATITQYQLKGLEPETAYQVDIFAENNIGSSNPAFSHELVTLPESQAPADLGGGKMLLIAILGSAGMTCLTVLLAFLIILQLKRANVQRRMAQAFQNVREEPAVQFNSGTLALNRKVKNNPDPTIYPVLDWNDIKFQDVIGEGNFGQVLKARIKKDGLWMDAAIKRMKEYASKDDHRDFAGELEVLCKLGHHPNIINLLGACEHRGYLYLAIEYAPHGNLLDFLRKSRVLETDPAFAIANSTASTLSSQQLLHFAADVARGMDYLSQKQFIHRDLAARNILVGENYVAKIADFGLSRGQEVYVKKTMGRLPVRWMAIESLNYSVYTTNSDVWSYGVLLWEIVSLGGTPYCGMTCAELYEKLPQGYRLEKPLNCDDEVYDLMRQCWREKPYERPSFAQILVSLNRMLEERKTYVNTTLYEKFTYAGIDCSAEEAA
Summary of the method: as §1

Sequence | % activity [1] | % activity [2] | % activity [3] | % activity [4] | % activity [5] | % activity [6] | % activity [7] | % activity [8] | % activity [9] | % activity [10] | % activity [11] | % activity [12] | % activity [13]
HRRIKAWLKKIKALARQLGVAA (mammal) [MMI-0500] | 21% | 65% | 36% | 19% | 48% | 110% | 5% | 24% | 52% | 57% | 40% | 122% | 
YARAAARQARAKALNRQLGVA (mammal) [MMI-0200] |  |  |  |  |  |  |  |  |  |  |  |  | 89%
